From patent US20160159924A1 (Novo Nordisk, published 2016)

B1: 0266-0000-0010 (antibody, IgG1, V domains shown)
VH: DVKLVESGGGLVKPGGSLKLSCVASGFTFSSYTMSWVRQTPEKRLEWVATISGGGSHIYYADSVKGRFTISRDNAKNTLYLQMSSLKSEDTAIYYCTRDGRDGSWFAYWGQGTLVTVSA
VL: DIVMTQSPATLSVTPGDRVSLSCRTSQSIGDYLHWYQQKSHESPRLLIKYVSQSISGIPSRFSGSGSGSDFTLSINSVESEDVGVYYCQNSHSFPLTFGSGTKLELK
B2: 0266-0000-0015 (antibody, IgG1, V domains shown)
VH: QIQLVQSGPELKKPGETVRISCKASGYTFTDYGMNWIKQTPGKGLKWMGWINTYSGEPTYSDEFKGRFAFSLETSASTASLQINNLKNEDMATYFCARDFDDYDSSRYFDVWGAGTTVTVSS
VL: DIVMSQSPSSLGVSVGEKLTMTCKSSQSLLYSSYQKNFLAWYQQKPGQSPKLLISWASTRDSGVPDRFTGSGSGTDFTLTISSVKAEDLAVYYCQQYYIYPPTFGGGTKLEIK
notes: also called hybridoma m-uPA-1F58A1
B3: 0266-0000-0043 (antibody, human IgG4 S228P, kappa, V domains shown)
VH: DVKLVESGGGLVKPGGSLRLSCAASGFTFSSYTMSWVRQAPGKGLEWVATISGGGSHIYYADSVKGRFTISRDNAKNSLYLQMNSLRAEDTAVYYCTRDGRDGSWFAYWGQGTLVTVSS
VL: DIVMTQSPAFLSVTPGEKVTISCRTSQSIGDYLHWYQQKPDQSPKLLIKYVSQSISGIPSRFSGSGSGSDFTFTISSLEAEDAATYYCQNSHSFPLTFGGGTKVEIKR
notes: also called rec0266-0000-0043
B4: rec0266-0000-0010 (antibody, mouse IgG1, V domains shown)
VH: B1 VH
VL: DIVMTQSPATLSVTPGDRVSLSCRTSQSIGDYLHWYQQKSHESPRLLIKYVSQSISGIPSRFSGSGSGSDFTLSINSVESEDVGVYYCQNSHSFPLTFGSGTKLELKR
notes: also called mAb rec0266-0000-0010

Columns and labels:
recombinant human sc-uPA [1] = target: T1, recombinant human sc-uPA (human, UniProt P00749 21-431); assay: cell-based or functional assay
[2] = target: recombinant human tc-uPA (R&D Systems, #1310-SE) (human, UniProt P00749 21-178; P00749 179-431); assay: cell-based or functional assay
recombinant human sc-uPA [3] = target: T1, recombinant human sc-uPA; assay: SPR (Biacore T200), mAb immobilised, sc-uPA as analyte
Procedure: (§1) Affinities of the anti-uPA mAbs towards human and cynomolgus sc-uPA (SEQ ID NO: 1 and 3) were measured by SPR using a Biacore T200 instrument (GE Healthcare). These studies were performed using a direct binding procedure. […] Injection time was 60 sec., followed by 180 sec. dissociation. Regeneration was performed by injection of two short pulses of glycine-HCl pH 1.5.
(§2) The kinetic parameters (kₐ, kd and KD) for the interaction were calculated using a 1:1 interaction Langmuir fitting model.
(§3) Results are shown in Table 2 Association rate constant (ka) and Dissociation rate constant (kd) were measured. Equilibrium dissociation constant is calculated as KD=kd/ka.

[4] = target: T2, recombinant cynomolgus sc-uPA (cynomolgus monkey, UniProt P16227 29-433 (Papio cynocephalus entry)); assay: as above
T2 construct: The exact signal peptide is said not to be established; also called cyno pro-uPA; cyno pro-uPA-6xHis
Procedure: as §1, §2, §3

recombinant human sc-uPA [5] = target: T1, recombinant human sc-uPA; assay: cell-based or functional assay; remark: listed apart in the source
[6] = target: T2, recombinant cynomolgus sc-uPA; assay: cell-based or functional assay
recombinant human sc-uPA [7] = target: T1, recombinant human sc-uPA; assay: SPR (Biacore), mAb immobilised, sc-uPA as analyte, 25 C
Procedure: (§4) In order to compare with murine mAb, the binding profile to recombinant human sc-uPA protein (SEQ ID NO: 1) and cynomolgus sc-uPA (SEQ ID NO: 3) was measured by surface plasmon resonance (SPR).
(§5) The experiments were performed on a Biacore™ instrument (GE Healthcare) and analysed with the BIAcore 4000 Evaluation Software. […] Recombinant human sc-uPA and cynomolgus sc-uPA proteins were diluted in HBS-N (GE Healthcare Cat BR-1006-70) with 1% BSA buffer with a dilution factor 3× ranging 1000-0.13 nM. Recombinant human sc-uPA and cynomolgus sc-uPA proteins were injected for 60 s, followed by a 600 s dissociation phase. Binding curves were measured at 25° C. with a flow rate of 30 μL/min. Regeneration of the chip surface was performed with pH1.5 Glycine for 25 s at 30 μl/min. Determination of the kinetic parameters was performed by fitting with a 1:1 binding model. Kinetic parameters were calculated and are stated in Table 14 below.

[8] = target: T2, recombinant cynomolgus sc-uPA; assay: as above
Procedure: as §4, §5

[9] = target: endogenously derived human uPA (primary human M1/M2 macrophages; human neutrophil granulocytes) (human, UniProt P00749 21-431); assay: cell-based or functional assay
recombinant human sc-uPA [10] = target: T1, recombinant human sc-uPA; assay: SPR, mAb immobilised
Procedure: The binding affinity to recombinant human sc-uPA protein (SEQ ID […]) was measured by surface plasmon resonance (SPR).
(§6) The experiments were performed on a Biacore™ instrument (GE Healthcare) and analysed with the BIAcore 4000 Evaluation Software. Anti-human uPA mAb variants were directly immobilized at 150-600 RU on flow cells of a CM5 sensor chip (GE Healthcare; cat. # BR-1000-12) via amine coupling, respectively. Recombinant human sc-uPA was diluted in HBS-N (GE Healthcare Cat BR-1006-70) with 1% BSA buffer with a dilution factor 3× ranging 1000-0.13 nM. Recombinant human sc-uPA was injected for 60 s, followed by a 600 s dissociation phase. Binding curves were measured at 25° C. with a flow rate of 30 μL/min. Regeneration of the chip surface was performed with pH1.5 Glycine for 25 s at 30 μl/min. Determination of the kinetic parameters was performed by fitting with a 1:1 binding model. Binding affinities were calculated and are stated in Table 20 below.

recombinant human sc-uPA [11] = target: T1, recombinant human sc-uPA; assay: SPR, mAb immobilised; remark: listed apart in the source
Procedure: The binding affinity to recombinant human sc-uPA protein (SEQ ID NO:1) was measured by surface plasmon resonance (SPR).
as §6, with “17” for “20”

Binder	IC50, coupled zymogen activation assay (Ex. 5) (recombinant human sc-uPA [1])	IC50, sc-uPA activation assay (Ex. 8) (recombinant human sc-uPA [1])	IC50, tc-uPA catalytic assay (Ex. 7) [2]	Kd (recombinant human sc-uPA [3])	koff (recombinant human sc-uPA [3])	kon (recombinant human sc-uPA [3])	Kd [4]	koff [4]	kon [4]	IC50, coupled zymogen activation assay, sc-uPA immobilized on uPAR of U937 cells (recombinant human sc-uPA [5])	IC50, coupled zymogen activation assay with cynomolgus sc-uPA [6]	Kd (recombinant human sc-uPA [7])	koff (recombinant human sc-uPA [7])	kon (recombinant human sc-uPA [7])	Kd [8]	koff [8]	kon [8]	IC50, plasmin generation by human M1/M2 macrophages [9]	Kd (recombinant human sc-uPA [10])	Kd (recombinant human sc-uPA [11])
B1	< 0.7 nM	5 nM	113 nM	1.02 nM	0.000345 s⁻¹	340000 M⁻¹ s⁻¹	0.121 nM	5.74e-05 s⁻¹	473000 M⁻¹ s⁻¹	< 0.7 nM	0.9 nM	–	–	–	–	–	–	–	–	–
B2	< 0.7 nM	3 nM	100 nM	0.37 nM	0.000381 s⁻¹	1.03e+06 M⁻¹ s⁻¹	5.32 nM	0.00717 s⁻¹	1.35e+06 M⁻¹ s⁻¹	< 0.7 nM	–	–	–	–	–	–	–	–	–	–
B3	–	–	–	–	–	–	–	–	–	< 0.7 nM	–	1.78 nM	0.0009 s⁻¹	506000 M⁻¹ s⁻¹	0.112 nM	0.000164 s⁻¹	1.46e+06 M⁻¹ s⁻¹	2.1 nM	–	–
B4	–	–	–	–	–	–	–	–	–	–	–	0.944 nM	0.00053 s⁻¹	561000 M⁻¹ s⁻¹	0.0526 nM	0.000104 s⁻¹	1.98e+06 M⁻¹ s⁻¹	–	0.47 nM	0.47 nM
